Paper PMC3688267 (Nature structural & molecular biology, 2011)
Changes are numbered by the printed parent chain. Numbers in names are those of the source.

T1: human RAP1RCT (RAP1 C-terminal RCT domain, residues 303-399) (human, UniProt Q9NYB0 303-399)
T1 sequence (looked up): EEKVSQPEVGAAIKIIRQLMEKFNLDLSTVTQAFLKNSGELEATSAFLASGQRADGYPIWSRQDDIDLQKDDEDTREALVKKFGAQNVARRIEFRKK

T2: S. pombe SpRap1RCT (SpRap1 residues 639-693) (S. pombe, UniProt Q96TL7 639-693)
T2 sequence (looked up): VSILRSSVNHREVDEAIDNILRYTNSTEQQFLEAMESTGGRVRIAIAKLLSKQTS

T3: SpRap1RCT V651R (S. pombe, UniProt Q96TL7 639-693, V651R)
T3 sequence (looked up): T2 sequence (looked up) with V13R

T4: S. cerevisiae ScRap1RCT (ScRap1 residues 679-827) (S. cerevisiae, UniProt P11938 679-827)
T4 sequence (looked up): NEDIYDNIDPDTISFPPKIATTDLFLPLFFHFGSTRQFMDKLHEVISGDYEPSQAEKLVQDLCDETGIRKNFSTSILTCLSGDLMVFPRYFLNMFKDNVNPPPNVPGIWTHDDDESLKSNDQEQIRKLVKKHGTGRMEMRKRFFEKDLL

B1: human TRF2RBM (RAP1-binding motif, TRF2 residues 275-316) (domain or fragment)
chain: QLRNPPTTIGMMTLKAAFKTLSGAQDSEAAFAKLDQKDLVLP
B2: full-length TRF2 protein (natural protein)
chain: MAGGGGSSDGSGRAAGRRASRSSGRARRGRHEPGLGGPAERGAGEARLEEAVNRWVLKFYFHEALRAFRGSRYGDFRQIRDIMQALLVRPLGKEHTVSRLLRVMQCLSRIEEGENLDCSFDMEAELTPLESAINVLEMIKTEFTLTEAVVESSRKLVKEAAVIICIKNKEFEKASKILKKHMSKDPTTQKLRNDLLNIIREKNLAHPVIQNFSYETFQQKMLRFLESHLDDAEPYLLTMAKKALKSESAASSTGKEDKQPAPGPVEKPPREPARQLRNPPTTIGMMTLKAAFKTLSGAQDSEAAFAKLDQKDLVLPTQALPASPALKNKRPRKDENESSAPADGEGGSELQPKNKRMTISRLVLEEDSQSTEPSAGLNSSQEAASAPPSKPTVLNQPLPGEKNPKVPKGKWNSSNGVEEKETWVEEDELFQVQAAPDEDSTTNITKKQKWTVEESEWVKAGVQKYGEGNWAAISKNYPFVNRTAVMIKDRWRTMKRLGMN
B3: S. pombe Taz1RBM (Taz1 residues 365-396) (domain or fragment, UniProt P79005 365-396, looked up)
chain: LSVKGMLYDSDSQQILNRLRERVSGSTAQSAD
B4: Taz1RBM L380R (domain or fragment, S. pombe, UniProt P79005 365-396, looked up)
chain: B3 chain with L16R
B5: Taz1RBM V387R (domain or fragment, S. pombe, UniProt P79005 365-396, looked up)
chain: B3 chain with V23R
B6: S. cerevisiae Sir3RBM (Sir3 residues 456-481) (peptide, UniProt P06701 456-481, looked up)
chain: EKGNAKMIDFATLSKLKKKYQIILDR

Columns and labels:
Test in all cases: ITC
[1] = target: T1, human RAP1RCT (RAP1 C-terminal RCT …)
[2] = target: T2, S. pombe SpRap1RCT (SpRap1 residues …)
SpRap1RCT V651R = target: T3, SpRap1RCT V651R
[3] = target: T4, S. cerevisiae ScRap1RCT (ScRap1 …)

Binder | Kd [1] [nM] | binding result [2] | further results
B1 | 16.5 |  | 
B2 | 23.9 |  | 
B3 |  |  | Kd [2]: 2000 nM; binding result (SpRap1RCT V651R): binds
B4 |  | binds | 
B5 |  | binds | 
B6 |  |  | Kd [3]: ~1800 nM
